Assay results as given in article PMC4754747, “A single residue substitution accounts for the significant difference in thermostability between two isoforms of human cytosolic creatine kinase” (Scientific Reports, 2016).

Target: the molecule itself
Assay: SEC; gel filtration on Superdex 200 10/300 GL (AKTA purifier) of thermally inactivated samples; heated at 45 °C (thermal inactivation: 0.2 mg/ml enzyme in 5 mM Tris-HCl, pH 8.0, 10 min); dimer to monomers

B1: human brain-type creatine kinase homodimer (hBBCK) (enzyme)
chain: not shown
notes: creatine kinase, brain type (B subunit), human; wild type; also called WT hBBCK; hBCK
- binding result: binds

B2: hBBCK P36L mutant (BP36L) (enzyme)
chain: not shown
notes: creatine kinase, brain type (B subunit), human, with P36L; Site-directed mutant of m1; details are in the Supplementary Information
- stoichiometry N: 2
